The test has as its target growth hormone secretagogue receptor-type 1a tagged with enhanced green fluorescent protein (GHSR-1a-EGFP), stably expressed in HEK293A cells (UniProt Q92847).
Chain of UniProt Q92847 (Q92847 whole entry): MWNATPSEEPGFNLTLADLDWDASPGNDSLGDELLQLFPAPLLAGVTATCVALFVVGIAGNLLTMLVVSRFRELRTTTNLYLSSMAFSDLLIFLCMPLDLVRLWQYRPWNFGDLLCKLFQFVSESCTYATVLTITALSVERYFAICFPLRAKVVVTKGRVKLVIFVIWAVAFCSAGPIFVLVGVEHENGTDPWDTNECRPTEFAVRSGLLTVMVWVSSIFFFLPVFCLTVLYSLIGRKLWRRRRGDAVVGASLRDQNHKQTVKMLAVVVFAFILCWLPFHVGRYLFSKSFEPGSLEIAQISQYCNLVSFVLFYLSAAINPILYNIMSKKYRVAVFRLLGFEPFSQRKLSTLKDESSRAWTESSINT

For the substance ghrelin (rat) (peptide), the intracellular Ca2+ mobilisation in HEK293A cells stably expressing GHSR-1a-EGFP, Emax as percentage of the control (3.3% FBS) worked out at 132%. With casein-derived hydrolysate (CasHyd), the intracellular Ca2+ mobilisation in HEK293A cells stably expressing GHSR-1a-EGFP, EC50 was found to be 270 µg/mL and the intracellular Ca2+ mobilisation in HEK293A cells stably expressing GHSR-1a-EGFP, Emax as percentage of the control (3.3% FBS) worked out at 149%.

These data come from PMC6165545.
